Source: patent publication US7732178B2, “Laccase enzymes and their uses” (AB Enzymes Oy, priority 2004, dated 2010)

Experiment: Stain removal, grass soiling
Set-up: key to Grass L* / Grass a* / Grass b*: CIE L*a*b* color coordinates from reflectance
Conditions: for Grass L* / Grass a* / Grass b*: 60 min, pH 6; for removal of grass soiling with the mediator: CtLcc1 at 60° C., TaLcc2 at 50° C.
Experimental: Laccases CtLcc1, TaLcc2, TaLcc4 and Denilite II Base (Example 7) were tested for their ability to remove stains. The following artificially soiled test cloths were used: grass soiling (Art.164, EMPA Testmaterialen, Germany), tea soiling (Art. 167, EMPA Testmaterialen, Germany). The fabric was cut in 5.8×5.8 cm swatches. Laccase treatments were performed in LP-2 Launder Ometer as follows. About 5 g of soiled fabrics were loaded into 1.2 liter containers containing 150 ml Mc Ilvaine's citrate phosphate buffer pH 6 and the containers were temperated. Enzyme with or without the mediator (methyl syringate, DeniLite II Assist, Novozymes) was added as laccase activity units (Example 7). Enzyme was dosed 200 nkat/g and the mediator 10 mg/g on the weight of fabric, except at 40° C. dosages of 20 nkat/g and 2 mg/g were also used. The Launder Ometer was run at 40, 50 or 60° C. and pH 6 for 60 min. After that the swatches were carefully rinsed under running water and in shake flasks containing warm water and dried in the air.
The stain removal effect was evaluated by measuring the colour as reflectance values using L*a*b* color space coordinates (Example 7). The colour of the swatches was measured before and after the laccase treatment.

[1] = 40° C., enzyme 20 nkat/g + mediator 2 mg/g (Mediator only: 0 nkat/g)
[2] = 40° C., enzyme 200 nkat/g + mediator 10 mg/g (Mediator only: 0 nkat/g), RF5571
[3] = 40° C., enzyme 200 nkat/g + mediator 10 mg/g (Mediator only: 0 nkat/g), RF5573
[4] = 40° C., enzyme 200 nkat/g, mediator 0 mg/g
[5] = 50° C., enzyme 200 nkat/g + mediator 10 mg/g (Mediator only: 0 nkat/g)
[6] = 40° C., enzyme 200 nkat/g + mediator 10 mg/g (Mediator only: 0 nkat/g)
[7] = 60° C., enzyme 200 nkat/g + mediator 10 mg/g (Mediator only: 0 nkat/g)
[8] = 60° C., enzyme 200 nkat/g, mediator 0 mg/g

B1: TaLcc2: Thielavia arenaria ALKO 4197 laccase, SEQ ID NO: 41, produced in Trichoderma reesei (protein)
chain: MLTETLKSRNMLQSILALLATALGSSAFAIPELPEVSLQPRQACENTATSRQCWGDLSIDTNYYEVLPSTGRPPQEYWLSVVEGPCAPDGYNRTCMTFNGTVPGPTLFADWGDELVIHVTNNMVNNGTAIHWHGIRMLNNTLNDGVPGVTQCAIAPGESMTYRFNVTQYGSTWYHSHFSLQYAEGLFGGMILRGPSTANWDEDLGVLFLQDWSHVEAFTRWHEAKAGFPPSLDGGLINGTNTFDCSTLSPTDPKCTGNGKKFETVFEPGKKYLIRLINVAIDGVFQFSIDGHSLTVIATDLVPIVPYTTDSVQITIGQRYDIIVEANATPGNYWMRADWVTACVTNDHPEHMTGIVRYDASSIDPPTSESNVTKTSSCLGEPNEKTIPHLSLDVTNIGGTNVEELSFDTTSGDYFQWTLNTSSLVLDWGNPTMARIFNGDAIFPTEYNVVAVNKTGTGPEWTVLVIQDQSNLPIAHPIHLHGHDFWVLAAEEGVFNGNISSFNTRNPARRDVATLPGRGYLAIAFQIDNPGTWLTHCHIAWHASQGLSLEFVESQSEIVTDEVSRGVFNDVCASWRAHDPLWEQEDSGI
modifications: Thielavia arenaria ALKO4197; (1)..(589) Deduced amino acid sequence of Thielavia arenaria ALKO4197 TaLacc2
For B1, the “Grass L*” value [1] was 79.25, the “Grass a*” value [1] was −2.14 and the “Grass b*” value [1] was 16.41. For the same molecule, the “Grass L*” value [2] was 79.24, the “Grass a*” value [2] was −0.31 and the “Grass b*” value [2] was 16.72. The “Grass L*” value [3] was 79.19, the “Grass a*” value [3] was −0.26 and the “Grass b*” value [3] was 16.99. The “Grass L*” value [4] was 80.01, the “Grass a*” value [4] was −4.90 and the “Grass b*” value [4] was 17.63. For the same molecule, the “Grass L*” value [5] was 79.50, the “Grass a*” value [5] was −1.15 and the “Grass b*” value [5] was 17.94. The “removal of grass soiling with the mediator” value was “effective”.

B2: CtLcc1: Chaetomium thermophilum ALKO 4265 laccase, SEQ ID NO: 47, produced in Trichoderma reesei (protein)
chain: MKFLTYATALLGALTAVVGAIPTRSGTKKKYIRDGPGPCHTPSNRACWAPGFDINTDYEVNTPNTGVTRNYTLTLTEEDNWTGPDGVVKEKIMLVNGKTLGPTIEANWGDWIEVKVINNLLTNGTSIHWHGIHQKGSNLHDGANGVTECPIPPNGGQRTYRFRAQQYGTSWYHSHFSAQYGNGIVGPIVIHGPASLPYDIDLGPFPLTDYYYKSADELVRHTQNNGPPFSDNVLFNGTGVHPQTGHGQYAKVTLTPGKRHRLRIINMSTENHFQVSLVGHQFTVIAADMVPVHSYTTDSLFLAVGQRYDVTIDASQTPGNYWFNVTFGGGFACGGSFNPNPAAIFHYEGAPDALPTDPGVPPRDHNCLDTLDLVPVVPRNVQVNQFVKKPENTLPVELSLGGTPLFVWKVNGSAIDVDWGNPVLQYVMDRNTSYRQADNIVEVNGVNQWTYWLIENDPNGAFSLPHPMHLHGHDFLIVGRSPDVPPGSNQRYNFDPATDIYRLRGQNPTRRDVAMLPAGGWLLLAFLTDNPGAWLFHCHIAWHVSGGLSVDFLERPNDLRNSILQHDKDEFNRVCNEWRTYWPNSPHPKIDSGLKHRWVEESEWLVR
modifications: Chaetomium thermophilum ALKO4265; (1)..(607) Deduced amino acid sequence of Chaetomium thermophilum ALKO4265 CtLcc1
In the case of B2, the “Grass L*” value [1] is reported as 79.94, the “Grass a*” value [1] is reported as −1.20 and the “Grass b*” value [1] is reported as 16.17. For the same molecule, the “Grass L*” value [6] was 79.74, the “Grass a*” value [6] was 0.17 and the “Grass b*” value [6] was 16.48. The “Grass L*” value [4] was 80.17, the “Grass a*” value [4] was −4.14 and the “Grass b*” value [4] was 17.45. The “Grass L*” value [7] was 79.92, the “Grass a*” value [7] was −1.15 and the “Grass b*” value [7] was 18.55. For the same molecule, the “Grass L*” value [8] was 79.04, the “Grass a*” value [8] was −3.69 and the “Grass b*” value [8] was 18.12. The “removal of grass soiling with the mediator” value was “effective”.
